This note sets out measurements from patent US20250084169A1.

Test [1] has as its target cynomolgus monkey Fc gamma receptor CD64 (cynomolgus monkey).
For test [2] the target is unchanged. This is another data set of the same source.
The target in test [3] is cynomolgus monkey Fc gamma receptor CD32b (cynomolgus monkey).
The target in test [4] is cynomolgus monkey Fc gamma receptor CD32a (cynomolgus monkey).
Test [5] has the same target. This is another data set of the same source.

Where two headings read alike, the source gives them in different places.

Sequence of Tafasitamab-cxix (research grade biosimilar) (antibody) (heavy): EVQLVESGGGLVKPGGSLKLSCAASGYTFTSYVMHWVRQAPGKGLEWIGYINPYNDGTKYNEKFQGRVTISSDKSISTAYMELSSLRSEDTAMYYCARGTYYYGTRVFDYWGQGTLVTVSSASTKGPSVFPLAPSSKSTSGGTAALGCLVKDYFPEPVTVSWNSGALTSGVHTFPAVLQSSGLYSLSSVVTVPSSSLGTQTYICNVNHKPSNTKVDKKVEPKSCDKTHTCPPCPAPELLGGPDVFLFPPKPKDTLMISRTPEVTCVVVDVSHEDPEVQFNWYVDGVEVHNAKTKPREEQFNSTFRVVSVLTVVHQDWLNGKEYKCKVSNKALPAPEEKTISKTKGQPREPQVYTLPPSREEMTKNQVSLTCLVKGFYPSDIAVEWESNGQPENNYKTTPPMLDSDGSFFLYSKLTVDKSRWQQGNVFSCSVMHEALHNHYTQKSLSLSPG
Sequence of Tafasitamab-cxix (research grade biosimilar) (antibody) (light): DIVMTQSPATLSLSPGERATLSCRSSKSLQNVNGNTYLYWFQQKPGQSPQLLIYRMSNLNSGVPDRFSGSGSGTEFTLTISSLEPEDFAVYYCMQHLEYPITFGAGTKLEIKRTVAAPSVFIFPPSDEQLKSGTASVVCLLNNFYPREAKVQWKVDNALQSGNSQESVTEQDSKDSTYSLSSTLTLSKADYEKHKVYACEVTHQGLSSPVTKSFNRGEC

“Tafasitamab-cxix (research grade biosimilar) (antibody)”: the Kd in test [1] is less than 0.02 nM; in test [2], 1.8 nM.

“FMC59-S239D/I332E (huFMC63-S239D/I332E) (antibody)”: the results for the Kd in test [1] and in test [2] were less than 0.02 nM and 1 nM, respectively.

For the substance Rituximab (antibody), the Kd is 1460 nM in test [3], less than 0.02 nM in test [1], 3130 nM in test [4] and 5940 nM in test [5].

The term Kd denotes the constant that tells how readily two partners part at equilibrium.
